Paper PMC11363328, “Identification of Rocaglate Acyl Sulfamides as Selective Inhibitors of Glioblastoma Stem Cells”

Assays:
Conditions in all cases: protein: recombinant; single strand
eIF4A1 [1] = target: T1, eIF4A1 (UniProt P60842 1-406); experiment: fluorescence polarization, protein titration; 50 uM (-)-5, 1 mM ATP; EC50 for complex formation, range for all three compounds; FP: 14.4 mM HEPES-KOH pH 8, 108 mM NaCl, 1 mM MgCl2, 14.4% glycerol, 0.1% DMSO, 2 mM DTT, 1 mM ATP, 10 nM probe, room temperature, 10 min
eIF4A1 [2] = target: T1, eIF4A1; experiment: fluorescence polarization, protein titration; 50 uM (-)-7, 1 mM ATP; EC50 for complex formation, range for all three compounds; FP: 14.4 mM HEPES-KOH pH 8, 108 mM NaCl, 1 mM MgCl2, 14.4% glycerol, 0.1% DMSO, 2 mM DTT, 1 mM ATP, 10 nM probe, room temperature, 10 min
eIF4A1 [3] = target: T1, eIF4A1; experiment: fluorescence polarization, protein titration; 50 uM (-)-20, 1 mM ATP; EC50 for complex formation, range for all three compounds; FP: 14.4 mM HEPES-KOH pH 8, 108 mM NaCl, 1 mM MgCl2, 14.4% glycerol, 0.1% DMSO, 2 mM DTT, 1 mM ATP, 10 nM probe, room temperature, 10 min

Measured: apparent K (half saturation)

T1 sequence (P60842 whole entry): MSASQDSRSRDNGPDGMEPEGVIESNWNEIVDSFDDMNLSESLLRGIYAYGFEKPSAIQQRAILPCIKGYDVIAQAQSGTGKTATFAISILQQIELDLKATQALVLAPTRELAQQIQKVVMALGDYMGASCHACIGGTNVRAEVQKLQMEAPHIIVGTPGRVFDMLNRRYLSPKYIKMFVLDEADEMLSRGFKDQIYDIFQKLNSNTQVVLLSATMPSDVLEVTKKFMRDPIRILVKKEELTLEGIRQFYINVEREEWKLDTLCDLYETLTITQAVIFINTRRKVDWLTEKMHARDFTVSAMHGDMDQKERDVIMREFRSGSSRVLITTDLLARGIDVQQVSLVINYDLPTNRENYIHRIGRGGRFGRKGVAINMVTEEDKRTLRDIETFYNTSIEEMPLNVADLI

AGAGAGAGAGAGAGAG (ssRNA) [FAM-r(AG)8]
~245 nM: all assays above
